Laboratory results reported in IntAct's records for PubMed 31515488.

B1: Peroxisomal bifunctional enzyme (Homo sapiens), Q08426 (parent)
chain: MAEYTRLHNALALIRLRNPPVNAISTTLLRDIKEGLQKAVIDHTIKAIVICGAEGKFSAGADIRGFSAPRTFGLTLGHVVDEIQRNEKPVVAAIQGMAFGGGLELALGCHYRIAHAEAQVGLPEVTLGLLPGARGTQLLPRLTGVPAALDLITSGRRILADEALKLGILDKVVNSDPVEEAIRFAQRVSDQPLESRRLCNKPIQSLPNMDSIFSEALLKMRRQHPGCLAQEACVRAVQAAVQYPYEVGIKKEEELFLYLLQSGQARALQYAFFAERKANKWSTPSGASWKTASARPVSSVGVVGLGTMGRGIVISFARARIPVIAVDSDKNQLATANKMITSVLEKEASKMQQSGHPWSGPKPRLTSSVKELGGVDLVIEAVFEEMSLKKQVFAELSAVCKPEAFLCTNTSALDVDEIASSTDRPHLVIGTHFFSPAHVMKLLEVIPSQYSSPTTIATVMNLSKKIKKIGVVVGNCFGFVGNRMLNPYYNQAYFLLEEGSKPEEVDQVLEEFGFKMGPFRVSDLAGLDVGWKSRKGQGLTGPTLLPGTPARKRGNRRYCPIPDVLCELGRFGQKTGKGWYQYDKPLGRIHKPDPWLSKFLSRYRKTHHIEPRTISQDEILERCLYSLINEAFRILGEGIAASPEHIDVVYLHGYGWPRHKGGPMFYASTVGLPTVLEKLQKYYRQNPDIPQLEPSDYLKKLASQGNPPLKEWQSLAGSPSSKL
partner: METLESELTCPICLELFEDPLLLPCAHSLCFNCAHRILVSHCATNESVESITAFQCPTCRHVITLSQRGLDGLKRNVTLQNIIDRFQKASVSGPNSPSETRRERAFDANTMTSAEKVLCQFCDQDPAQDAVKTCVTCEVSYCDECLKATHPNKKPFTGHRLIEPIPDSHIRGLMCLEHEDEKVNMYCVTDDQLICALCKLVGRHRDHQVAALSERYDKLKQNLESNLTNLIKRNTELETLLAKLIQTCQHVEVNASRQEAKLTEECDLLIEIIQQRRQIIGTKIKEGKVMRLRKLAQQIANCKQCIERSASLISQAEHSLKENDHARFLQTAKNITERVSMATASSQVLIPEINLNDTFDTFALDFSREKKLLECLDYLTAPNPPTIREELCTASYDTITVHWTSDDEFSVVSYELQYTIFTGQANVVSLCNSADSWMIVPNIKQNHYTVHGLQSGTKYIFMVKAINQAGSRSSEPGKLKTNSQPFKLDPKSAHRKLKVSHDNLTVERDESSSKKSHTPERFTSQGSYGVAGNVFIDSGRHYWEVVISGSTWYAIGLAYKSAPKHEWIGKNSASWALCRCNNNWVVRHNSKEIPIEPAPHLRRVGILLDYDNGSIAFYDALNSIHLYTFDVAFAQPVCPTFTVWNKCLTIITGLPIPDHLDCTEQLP
B2: Coiled-coil domain-containing glutamate-rich protein 1 (Homo sapiens), Q8TC90 (parent)
chain: MTQTLDTREDPLNLGGGGGGGCGCGWAHSASLSSWSSCHRRRPGAPAYNRPHRYSPKTEYGPPRKQPKQQHGPGFWFQPPVCSNWGCWGGPWRPPPPGFWKFPCPVQVFRVYGLHPLCFCCCSCWSGSWNPGWVKPPGRKKRWGRRGRGLRHHPRHSYPRSPPADVSTLPRPVKLYEWREPGMRAPPNTTQFIMNQIYEDMRQQEKVERQQEALRAQKATVSGEASPARSSGNDAPPGGSKETWGLQETLYGFVQNPSLAFSPNPEENQSLAPLLVEEEEEKKNDDEEEYDQEVCDAKEASEEEEEVEDEEEEVEDEEEEEVEEAEYVEEGEEELEEEELEEEEEVLEENEQRGEEFHLPLEMPLSIFVEAEEKRENFISCTFLNPEQIIPKVPQESLFMAQDFNC
B3: Coiled-coil domain-containing protein 33 (Homo sapiens), Q8N5R6-5 (parent)
chain: MGEPGPPSPPAPKAAPGLIDSFSEMNNYRRAMQKMAEDILSLRRQASILEGENRILRSRLAQQEEEEGQGKASEAQNTVSMKQKLLLSELDMKKLRDRVQHLQNELIRKNDREKELLLLYQAQQPQAALLKQYQGKLQKMKALEETVRHQEKVIEKMERVLEDRLQDRSKPPPLNRQQGKPYTGFPMLSASGLPLGSMGENLPVELYSVLLAENAKLRTELDKNRHQQAPIILQQQALPVDPGELGAGGDLTERLQETHGPGHSECTETLPAQDLLSGTSDKFNLLAKLEHAQSRILSLESQLEDSARRWGREKQDLATRLQEQEKGFRHPSNSIIIEQPVSDPPGVAPRGSGGGAGSHRTPKVTGP
partner: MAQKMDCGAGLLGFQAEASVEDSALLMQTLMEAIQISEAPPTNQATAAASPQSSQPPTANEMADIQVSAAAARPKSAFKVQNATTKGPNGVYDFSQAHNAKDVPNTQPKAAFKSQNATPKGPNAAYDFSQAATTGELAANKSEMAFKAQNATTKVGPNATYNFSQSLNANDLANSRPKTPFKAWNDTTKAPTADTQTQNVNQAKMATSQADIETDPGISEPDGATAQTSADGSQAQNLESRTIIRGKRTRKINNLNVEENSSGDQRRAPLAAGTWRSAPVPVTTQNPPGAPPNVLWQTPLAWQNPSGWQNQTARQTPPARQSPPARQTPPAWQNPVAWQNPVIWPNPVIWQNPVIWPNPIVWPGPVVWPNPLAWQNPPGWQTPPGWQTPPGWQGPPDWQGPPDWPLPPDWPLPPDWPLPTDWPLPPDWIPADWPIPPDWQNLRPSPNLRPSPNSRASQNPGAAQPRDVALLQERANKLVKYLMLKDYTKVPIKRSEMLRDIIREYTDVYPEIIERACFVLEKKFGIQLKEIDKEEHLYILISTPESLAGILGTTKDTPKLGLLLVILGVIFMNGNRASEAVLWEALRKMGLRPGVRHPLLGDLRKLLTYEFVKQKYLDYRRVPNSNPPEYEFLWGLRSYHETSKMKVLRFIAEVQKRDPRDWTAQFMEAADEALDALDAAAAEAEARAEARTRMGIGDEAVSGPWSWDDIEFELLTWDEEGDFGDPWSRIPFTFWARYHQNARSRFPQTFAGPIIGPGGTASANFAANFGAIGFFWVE
B4: Zinc finger protein 414 (Homo sapiens), Q96IQ9 (parent)
chain: MEEKPSGPIPDMLATAEPSSSETDKEVLSPAVPAAAPSSSMSEEPGPEQAATPPVWERGGAGGMQQGSSPAPDSCQPGPGPSPGLTSIVSGTSEDLRPPRRRPPPGKQIPCSSPGCCLSFPSVRDLAQHLRTHCPPTQSLEGKLFRCSALSCTETFPSMQELVAHSKLHYKPNRYFKCENCLLRFRTHRSLFKHLHVCAEHAQSPAPPPPPALDREPPAPERPPEVDPASAPGLPFPLLEPFTTPAPAPTGPFLPYLNPAPFGLSPPRLRPFLAAAPGPPASSAAVWKKSQGAGSSPRRPQGGSDAPSGACR
partner: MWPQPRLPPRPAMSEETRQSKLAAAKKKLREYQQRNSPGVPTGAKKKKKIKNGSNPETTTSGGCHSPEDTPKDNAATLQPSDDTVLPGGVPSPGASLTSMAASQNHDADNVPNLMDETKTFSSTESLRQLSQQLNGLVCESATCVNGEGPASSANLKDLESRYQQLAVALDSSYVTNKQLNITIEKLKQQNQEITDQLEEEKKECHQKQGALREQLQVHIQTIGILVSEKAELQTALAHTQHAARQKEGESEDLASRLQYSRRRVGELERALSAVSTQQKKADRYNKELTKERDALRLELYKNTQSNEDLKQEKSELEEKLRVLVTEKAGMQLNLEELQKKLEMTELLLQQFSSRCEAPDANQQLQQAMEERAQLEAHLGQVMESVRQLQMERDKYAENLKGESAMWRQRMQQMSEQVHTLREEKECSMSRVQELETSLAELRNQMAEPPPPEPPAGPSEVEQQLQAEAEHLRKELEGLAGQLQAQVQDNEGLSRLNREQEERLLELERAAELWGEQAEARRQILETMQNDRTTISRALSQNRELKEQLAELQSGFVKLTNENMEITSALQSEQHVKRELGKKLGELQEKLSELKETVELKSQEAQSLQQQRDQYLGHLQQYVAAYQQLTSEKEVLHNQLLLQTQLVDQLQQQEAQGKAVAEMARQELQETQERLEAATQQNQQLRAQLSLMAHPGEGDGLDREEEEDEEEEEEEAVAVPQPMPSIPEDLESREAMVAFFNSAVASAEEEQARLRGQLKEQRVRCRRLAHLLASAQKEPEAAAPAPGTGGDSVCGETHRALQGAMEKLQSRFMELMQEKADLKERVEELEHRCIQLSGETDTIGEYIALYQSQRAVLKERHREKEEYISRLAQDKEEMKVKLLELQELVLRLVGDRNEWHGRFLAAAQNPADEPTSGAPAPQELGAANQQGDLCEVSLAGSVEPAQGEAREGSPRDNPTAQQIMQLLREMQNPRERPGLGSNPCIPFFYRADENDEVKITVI
B5: Zinc finger protein Aiolos (Homo sapiens), Q9UKT9-1 (parent)
chain: MEDIQTNAELKSTQEQSVPAESAAVLNDYSLTKSHEMENVDSGEGPANEDEDIGDDSMKVKDEYSERDENVLKSEPMGNAEEPEIPYSYSREYNEYENIKLERHVVSFDSSRPTSGKMNCDVCGLSCISFNVLMVHKRSHTGERPFQCNQCGASFTQKGNLLRHIKLHTGEKPFKCHLCNYACQRRDALTGHLRTHSVEKPYKCEFCGRSYKQRSSLEEHKERCRTFLQSTDPGDTASAEARHIKAEMGSERALVLDRLASNVAKRKSSMPQKFIGEKRHCFDVNYNSSYMYEKESELIQTRMMDQAINNAISYLGAEALRPLVQTPPAPTSEMVPVISSMYPIALTRAEMSNGAPQELEKKSIHLPEKSVPSERGLSPNNSGHDSTDTDSNHEERQNHIYQQNHMVLSRARNGMPLLKEVPRSYELLKPPPICPRDSVKVINKEGEVMDVYRCDHCRVLFLDYVMFTIHMGCHGFRDPFECNMCGYRSHDRYEFSSHIARGEHRALLK

Variants of: B1
Settings: with tri18_human MID1, O15344

| Variant | effect of a mutation on the interaction |
| --- | --- |
| R483Q | with no effect |
| R556G | with no effect |
| L715S | with no effect |
| I646T | disrupting interaction strength |
| S703F | with no effect |

Variants of: B2
Settings: with pls1_human PLSCR1, O15162
Sequence of pls1_human PLSCR1, O15162 (O15162 whole entry): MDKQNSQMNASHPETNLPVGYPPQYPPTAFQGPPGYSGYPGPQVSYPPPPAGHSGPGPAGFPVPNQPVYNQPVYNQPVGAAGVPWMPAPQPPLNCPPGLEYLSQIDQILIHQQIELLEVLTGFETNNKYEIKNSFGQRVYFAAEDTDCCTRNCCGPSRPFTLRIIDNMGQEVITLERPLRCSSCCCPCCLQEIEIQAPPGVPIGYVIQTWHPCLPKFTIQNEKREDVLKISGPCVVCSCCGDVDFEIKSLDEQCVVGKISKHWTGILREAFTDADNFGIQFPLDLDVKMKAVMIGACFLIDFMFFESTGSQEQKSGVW

| Variant | effect of a mutation on the interaction |
| --- | --- |
| E293K | with no effect |

Variants of: B2
Settings: with nt2na_human NOTCH2NLA

| Variant | effect of a mutation on the interaction |
| --- | --- |
| E293K | with no effect |

Variants of: B3
Settings: with magd1_human MAGED1, Q9Y5V3

| Variant | effect of a mutation on the interaction |
| --- | --- |
| G196R | with no effect |
| M25V | with no effect |
| P203L | with no effect |
| R30L | with no effect |

Variants of: B4
Settings: with goga2_human GOLGA2, Q08379

| Variant | effect of a mutation on the interaction |
| --- | --- |
| P77S | with no effect |
| S166G | with no effect |

Variants of: B5
Settings: with aakb2_human PRKAB2, O43741
Sequence of aakb2_human PRKAB2, O43741 (O43741 whole entry): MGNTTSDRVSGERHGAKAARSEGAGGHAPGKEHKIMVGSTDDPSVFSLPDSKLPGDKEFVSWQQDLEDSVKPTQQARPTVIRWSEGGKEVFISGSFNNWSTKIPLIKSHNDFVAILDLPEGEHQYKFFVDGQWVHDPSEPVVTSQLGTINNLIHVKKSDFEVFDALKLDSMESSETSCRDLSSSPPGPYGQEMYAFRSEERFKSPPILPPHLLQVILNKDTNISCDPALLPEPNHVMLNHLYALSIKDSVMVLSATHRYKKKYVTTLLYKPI

| Variant | effect of a mutation on the interaction |
| --- | --- |
| I338M | with no effect |

Variants of: B5
Settings: with pfd5_human PFDN5, Q99471
Sequence of pfd5_human PFDN5, Q99471 (Q99471 whole entry): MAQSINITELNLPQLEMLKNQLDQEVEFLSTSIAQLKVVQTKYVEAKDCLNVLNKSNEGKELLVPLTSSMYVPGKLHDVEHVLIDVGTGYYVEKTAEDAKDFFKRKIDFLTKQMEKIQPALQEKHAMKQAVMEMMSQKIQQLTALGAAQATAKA

| Variant | effect of a mutation on the interaction |
| --- | --- |
| I338M | with no effect |

Variants of: B5
Settings: with p85b_human PIK3R2, O00459
Sequence of p85b_human PIK3R2, O00459 (O00459 whole entry): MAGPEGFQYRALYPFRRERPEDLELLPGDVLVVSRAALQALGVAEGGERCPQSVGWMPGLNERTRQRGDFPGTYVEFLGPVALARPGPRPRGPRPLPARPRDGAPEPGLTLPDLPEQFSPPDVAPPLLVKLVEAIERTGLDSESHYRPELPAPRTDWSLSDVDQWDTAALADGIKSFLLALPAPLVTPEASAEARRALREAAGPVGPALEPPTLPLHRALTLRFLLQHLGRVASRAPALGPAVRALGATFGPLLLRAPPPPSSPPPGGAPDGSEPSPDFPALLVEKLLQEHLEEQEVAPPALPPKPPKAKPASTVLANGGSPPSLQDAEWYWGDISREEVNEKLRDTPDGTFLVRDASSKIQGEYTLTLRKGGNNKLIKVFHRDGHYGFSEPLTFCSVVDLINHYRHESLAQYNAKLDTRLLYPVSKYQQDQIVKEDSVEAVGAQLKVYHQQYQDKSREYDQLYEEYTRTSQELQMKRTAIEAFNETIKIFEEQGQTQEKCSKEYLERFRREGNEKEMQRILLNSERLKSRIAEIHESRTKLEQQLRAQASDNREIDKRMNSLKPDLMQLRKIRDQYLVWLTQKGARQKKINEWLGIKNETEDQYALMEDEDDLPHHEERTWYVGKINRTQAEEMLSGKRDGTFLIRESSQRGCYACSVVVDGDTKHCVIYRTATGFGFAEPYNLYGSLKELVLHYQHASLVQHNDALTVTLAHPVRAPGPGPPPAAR

| Variant | effect of a mutation on the interaction |
| --- | --- |
| I338M | with no effect |

Variants of: B5
Settings: with aakb2_human PRKAB2, O43741
Remark: another data set of the same source

| Variant | effect of a mutation on the interaction |
| --- | --- |
| A24V | with no effect |

Variants of: B5
Settings: with exoc8_human EXOC8, Q8IYI6
Sequence of exoc8_human EXOC8, Q8IYI6 (Q8IYI6 whole entry): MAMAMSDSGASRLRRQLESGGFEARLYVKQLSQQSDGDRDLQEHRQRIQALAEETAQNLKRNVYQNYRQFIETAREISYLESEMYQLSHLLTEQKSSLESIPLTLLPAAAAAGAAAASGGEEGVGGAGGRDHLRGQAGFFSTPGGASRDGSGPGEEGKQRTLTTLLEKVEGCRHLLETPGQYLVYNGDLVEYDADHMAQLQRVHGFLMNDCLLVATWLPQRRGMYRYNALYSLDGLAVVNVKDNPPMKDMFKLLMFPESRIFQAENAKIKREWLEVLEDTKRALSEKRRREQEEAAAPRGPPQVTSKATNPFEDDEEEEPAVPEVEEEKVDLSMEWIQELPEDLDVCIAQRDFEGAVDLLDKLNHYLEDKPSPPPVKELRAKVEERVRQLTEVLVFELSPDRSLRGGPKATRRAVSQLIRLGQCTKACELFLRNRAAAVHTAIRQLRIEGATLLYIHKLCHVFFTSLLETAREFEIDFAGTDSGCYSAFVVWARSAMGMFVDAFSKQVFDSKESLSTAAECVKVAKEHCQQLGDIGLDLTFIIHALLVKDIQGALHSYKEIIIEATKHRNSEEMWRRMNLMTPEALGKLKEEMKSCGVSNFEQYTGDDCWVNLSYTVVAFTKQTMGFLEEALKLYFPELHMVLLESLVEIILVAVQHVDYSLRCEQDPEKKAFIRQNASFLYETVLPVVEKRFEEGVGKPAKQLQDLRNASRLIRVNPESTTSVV

| Variant | effect of a mutation on the interaction |
| --- | --- |
| A24V | with no effect |

Variants of: B5
Settings: with tb22b_human TBC1D22B

| Variant | effect of a mutation on the interaction |
| --- | --- |
| A24V | with no effect |

Variants of: B5
Settings: with p85b_human PIK3R2, O00459
Remark: another data set of the same source

| Variant | effect of a mutation on the interaction |
| --- | --- |
| A24V | with no effect |

Variants of: B5
Settings: with rpac1_human POLR1C

| Variant | effect of a mutation on the interaction |
| --- | --- |
| A24V | with no effect |

Variants of: B5
Settings: with pfd5_human PFDN5, Q99471
Remark: another data set of the same source

| Variant | effect of a mutation on the interaction |
| --- | --- |
| A24V | with no effect |

Variants of: B5
Settings: with nek6_human NEK6, Q9HC98
Sequence of nek6_human NEK6, Q9HC98 (Q9HC98 whole entry): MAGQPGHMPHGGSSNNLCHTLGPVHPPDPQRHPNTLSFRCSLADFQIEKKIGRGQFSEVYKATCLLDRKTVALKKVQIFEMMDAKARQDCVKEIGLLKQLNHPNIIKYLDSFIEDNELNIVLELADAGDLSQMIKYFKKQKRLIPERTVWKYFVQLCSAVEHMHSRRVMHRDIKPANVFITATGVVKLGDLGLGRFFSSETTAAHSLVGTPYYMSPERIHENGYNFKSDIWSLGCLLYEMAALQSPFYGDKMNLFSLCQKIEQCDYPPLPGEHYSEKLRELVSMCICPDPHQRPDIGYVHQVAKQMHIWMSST

| Variant | effect of a mutation on the interaction |
| --- | --- |
| A24V | with no effect |

Variants of: B5
Settings: with exos5_human EXOSC5, Q9NQT4
Sequence of exos5_human EXOSC5, Q9NQT4 (Q9NQT4 whole entry): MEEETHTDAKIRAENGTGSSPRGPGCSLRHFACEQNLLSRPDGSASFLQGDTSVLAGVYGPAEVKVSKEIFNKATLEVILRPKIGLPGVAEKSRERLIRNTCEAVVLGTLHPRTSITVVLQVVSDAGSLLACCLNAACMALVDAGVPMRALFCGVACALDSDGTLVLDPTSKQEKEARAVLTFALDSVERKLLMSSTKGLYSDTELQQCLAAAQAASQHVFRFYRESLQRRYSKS

| Variant | effect of a mutation on the interaction |
| --- | --- |
| A24V | with no effect |

Variants of: B5
Settings: with tstd2_human TSTD2, Q5T7W7
Sequence of tstd2_human TSTD2, Q5T7W7 (Q5T7W7 whole entry): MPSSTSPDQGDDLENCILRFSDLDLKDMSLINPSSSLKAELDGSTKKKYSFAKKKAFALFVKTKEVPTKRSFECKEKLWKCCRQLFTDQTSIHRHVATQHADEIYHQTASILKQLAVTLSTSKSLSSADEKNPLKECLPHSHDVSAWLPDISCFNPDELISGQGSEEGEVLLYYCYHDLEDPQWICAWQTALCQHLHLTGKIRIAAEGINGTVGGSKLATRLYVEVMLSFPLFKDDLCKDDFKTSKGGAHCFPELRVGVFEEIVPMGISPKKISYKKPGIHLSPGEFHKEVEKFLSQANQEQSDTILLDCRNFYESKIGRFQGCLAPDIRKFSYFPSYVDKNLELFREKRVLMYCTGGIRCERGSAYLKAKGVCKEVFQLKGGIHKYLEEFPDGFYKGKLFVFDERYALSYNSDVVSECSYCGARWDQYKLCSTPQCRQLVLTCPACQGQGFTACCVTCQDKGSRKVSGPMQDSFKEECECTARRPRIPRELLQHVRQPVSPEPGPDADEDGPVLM

| Variant | effect of a mutation on the interaction |
| --- | --- |
| A24V | with no effect |
